Legend:
HeLa Kyoto [1] = assay: solubility in G1/S (NP-40 vs SDS abundance) (log2 ratio); higher = more soluble; conditions: cell cycle stage: G1/S
HeLa Kyoto [2] = assay: thermal stability score vs G1/S (z-score of summed log2 fold changes over temperatures); higher = more thermally stable than in G1/S
HeLa Kyoto [3] = assay: melting temperature (median over replicates), in situ; higher = more thermally stable
HeLa Kyoto [4] = assay: solubility change mitosis vs G1/S (difference of NP-40 vs SDS log2 ratios) (log2 ratio difference); higher = more soluble in mitosis
[5] = cell cycle stage: early G1 (4.5 h after nocodazole release)
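For melting temperature (median over replicates), in situ in this document: HeLa Kyoto cells synchronized by double thymidine or nocodazole block, proteins quantified by TMT10plex mass spectrometry, three independent biological replicates.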
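For solubility change mitosis vs G1/S (difference of NP-40 vs SDS log2 ratios) in this document: synchronized HeLa Kyoto cells (double thymidine block for G1/S, nocodazole release for mitosis), protein amounts in NP-40 versus SDS lysates quantified by mass spectrometry, three biological replicates.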
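For solubility in G1/S (NP-40 vs SDS abundance) in this document: HeLa Kyoto cells arrested at G1/S by double thymidine block, proteins quantified by TMT10plex mass spectrometry in mild NP-40 versus SDS extracts, three biological replicates.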
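For thermal stability score vs G1/S (z-score of summed log2 fold changes over temperatures) in this document: synchronized HeLa Kyoto cells, proteins quantified by TMT10plex mass spectrometry, three biological replicates, mitosis taken 0.5 h after nocodazole release, G1/S directly after double thymidine block.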

| Substance | solubility in G1/S (log2) (HeLa Kyoto [1]) | thermal stability score (HeLa Kyoto [2]; [5]) | thermal stability score (HeLa Kyoto [2]; cell cycle stage: mitosis) | melting temperature (HeLa Kyoto [3]; cell cycle stage: G1/S) | melting temperature (HeLa Kyoto [3]; cell cycle stage: mitosis) | solubility change mitosis (log2) (HeLa Kyoto [4]) |
| --- | --- | --- | --- | --- | --- | --- |
| MAGPVSLRDLLMGASAWMGSESPGGSPTEGGGSAAGGPEPPWREDEICVVGIFGKTALRLNSEKFSLVNTVCDRQVFPLFRHQDPGDPGPGIRTEAGAVGEAGGAEDPGAAAGGSVRGSGAVAEGNRTEAGSQDYSLLQAYYSQESKVLYLLLTSICDNSQLLRACRALQSGEAGGGLSLPHAEAHEFWKHQEKLQCLSLLYLFSVCHILLLVHPTCSFDITYDRVFRALDGLRQKVLPLLKTAIKDCPVGKDWKLNCRPCPPRLLFLFQLNGALKVEPPRNQDPAHPDKPKKHSPKRRLQHALEDQIYRIFRKSRVLTNQSINCLFTVPANQAFVYIVPGSQEEDPVGMLLDQLRSHCTVKDPESLLVPAPLSGPRRYQVMRQHSRQQLSFHIDSSSSSSSGQLVDFTLREFLWQHVELVLSKKGFDDSVGRNPQPSHFELPTYQKWISAASKLYEVAIDGKEEDLGSPTGELTSKILSSIKVLEGFLDIDTKFSENRCQKALPMAHSAYQSNLPHNYTMTVHKNQLAQALRVYSQHARGPAFHKYAMQLHEDCYKFWSNGHQLCEERSLTDQHCVHKFHSLPKSGEKPEADRNPPVLYHNSRARSTGACNCGRKQAPRDDPFDIKAANYDFYQLLEEKCCGKLDHINFPVFEPSTPDPAPAKNESSPAPPDSDADKLKEKEPQTQGESTSLSLALSLGQSTDSLGTYPADPQAGGDNPEVHGQVEVKTEKRPNFVDRQASTVEYLPGMLHSNCPKGLLPKFSSWSLVKLGPAKSYNFHTGLDQQGFIPGTNYLMPWDIVIRTRAEDEGDLDTNSWPAPNKAIPGKRSAVVMGRGRRRDDIARAFVGFEYEDSRGRRFMCSGPDKVMKVMGSGPKESALKALNSDMPLYILSSSQGRGLKPHYAQLMRLFVVVPDAPLQIILMPQVQPGPPPCPVFYPEKQEITLPPDGLWVLRFPYAYVTERGPCFPPKENVQLMSYKVLRGVLKAVTQ [SMG8] | 0.118 | 0.364 | 0.79 | 49.4 °C | 48.5 °C | -0.0473 |
| MAFPHRPDAPELPDFSMLKRLARDQLIYLLEQLPGKKDLFIEADLMSPLDRIANVSILKQHEVDKLYKVENKPALSSNEQLCFLVRPRIKNMRYIASLVNADKLAGRTRKYKVIFSPQKFYACEMVLEEEGIYGDVSCDEWAFSLLPLDVDLLSMELPEFFRDYFLEGDQRWINTVAQALHLLSTLYGPFPNCYGIGRCAKMAYELWRNLEEEEDGETKGRRPEIGHIFLLDRDVDFVTALCSQVVYEGLVDDTFRIKCGSVDFGPEVTSSDKSLKVLLNAEDKVFNEIRNEHFSNVFGFLSQKARNLQAQYDRRRGMDIKQMKNFVSQELKGLKQEHRLLSLHIGACESIMKKKTKQDFQELIKTEHALLEGFNIRESTSYIEEHIDRQVSPIESLRLMCLLSITENGLIPKDYRSLKTQYLQSYGPEHLLTFSNLRRAGLLTEQAPGDTLTAVESKVSKLVTDKAAGKITDAFSSLAKRSNFRAISKKLNLIPRVDGEYDLKVPRDMAYVFGGAYVPLSCRIIEQVLERRSWQGLDEVVRLLNCSDFAFTDMTKEDKASSESLRLILVVFLGGCTFSEISALRFLGREKGYRFIFLTTAVTNSARLMEAMSEVKA [VPS33B] | -0.121 | 0.623 | 0.549 | 49.9 °C | 49.4 °C | -0.189 |
| MAASRWARKAVVLLCASDLLLLLLLLPPPGSCAAEGSPGTPDESTPPPRKKKKDIRDYNDADMARLLEQWEKDDDIEEGDLPEHKRPSAPVDFSKIDPSKPESILKMTKKGKTLMMFVTVSGSPTEKETEEITSLWQGSLFNANYDVQRFIVGSDRAIFMLRDGSYAWEIKDFLVGQDRCADVTLEGQVYPGKGGGSKEKNKTKQDKGKKKKEGDLKSRSSKEENRAGNKREDL [MESDC2] | 0.269 | 3.56 | 2.22 | 55.5 °C | 56.3 °C | -0.0464 |
| DMD | 0.235 | 0.00802 | 0.278 | 49.9 °C | 50.2 °C | -0.235 |
| MSNPFAHLAEPLDPVQPGKKFFNLNKLEDSRYGRLPFSIRVLLEAAIRNCDEFLVKKQDIENILHWNVTQHKNIEVPFKPARVILQDFTGVPAVVDFAAMRDAVKKLGGDPEKINPVCPADLVIDHSIQVDFNRRADSLQKNQDLEFERNRERFEFLKWGSQAFHNMRIIPPGSGIIHQVNLEYLARVVFDQDGYYYPDSLVGTDSHTTMIDGLGILGWGVGGIEAEAVMLGQPISMVLPQVIGYRLMGKPHPLVTSTDIVLTITKHLRQVGVVGKFVEFFGPGVAQLSIADRATIANMCPEYGATAAFFPVDEVSITYLVQTGRDEEKLKYIKKYLQAVGMFRDFNDPSQDPDFTQVVELDLKTVVPCCSGPKRPQDKVAVSDMKKDFESCLGAKQGFKGFQVAPEHHNDHKTFIYDNTEFTLAHGSVVIAAITSCTNTSNPSVMLGAGLLAKKAVDAGLNVMPYIKTSLSPGSGVVTYYLQESGVMPYLSQLGFDVVGYGCMTCIGNSGPLPEPVVEAITQGDLVAVGVLSGNRNFEGRVHPNTRANYLASPPLVIAYAIAGTIRIDFEKEPLGVNAKGQQVFLKDIWPTRDEIQAVERQYVIPGMFKEVYQKIETVNESWNALATPSDKLFFWNSKSTYIKSPPFFENLTLDLQPPKSIVDAYVLLNLGDSVTTDHISPAGNIARNSPAARYLTNRGLTPREFNSYGSRRGNDAVMARGTFANIRLLNRFLNKQAPQTIHLPSGEILDVFDAAERYQQAGLPLIVLAGKEYGAGSSRDWAAKGPFLLGIKAVLAESYERIHRSNLVGMGVIPLEYLPGENADALGLTGQERYTIIIPENLKPQMKVQVKLDTGKTFQAVMRFDTDVELTYFLNGGILNYMIRKMAK [ACO1] | -0.0477 | -1.5 | -0.466 | 54 °C | 53.1 °C | -0.178 |
| MSRSVLQPSQQKLAEKLTILNDRGVGMLTRLYNIKKACGDPKAKPSYLIDKNLESAVKFIVRKFPAVETRNNNQQLAQLQKEKSEILKNLALYYFTFVDVMEFKDHVCELLNTIDVCQVFFDITVNFDLTKNYLDLIITYTTLMILLSRIEERKAIIGLYNYAHEMTHGASDREYPRLGQMIVDYENPLKKMMEEFVPHSKSLSDALISLQMVYPRRNLSADQWRNAQLLSLISAPSTMLNPAQSDTMPCEYLSLDAMEKWIIFGFILCHGILNTDATALNLWKLALQSSSCLSLFRDEVFHIHKAAEDLFVNIRGYNKRINDIRECKEAAVSHAGSMHRERRKFLRSALKELATVLSDQPGLLGPKALFVFMALSFARDEIIWLLRHADNMPKKSADDFIDKHIAELIFYMEELRAHVRKYGPVMQRYYVQYLSGFDAVVLNELVQNLSVCPEDESIIMSSFVNTMTSLSVKQVEDGEVFDFRGMRLDWFRLQAYTSVSKASLGLADHRELGKMMNTIIFHTKMVDSLVEMLVETSDLSIFCFYSRAFEKMFQQCLELPSQSRYSIAFPLLCTHFMSCTHELCPEERHHIGDRSLSLCNMFLDEMAKQARNLITDICTEQCTLSDQLLPKHCAKTISQAVNKKSKKQTGKKGEPEREKPGVESMRKNRLVVTNLDKLHTALSELCFSINYVPNMVVWEHTFTPREYLTSHLEIRFTKSIVGMTMYNQATQEIAKPSELLTSVRAYMTVLQSIENYVQIDITRVFNNVLLQQTQHLDSHGEPTITSLYTNWYLETLLRQVSNGHIAYFPAMKAFVNLPTENELTFNAEEYSDISEMRSLSELLGPYGMKFLSESLMWHISSQVAELKKLVVENVDVLTQMRTSFDKPDQMAALFKRLSSVDSVLKRMTIIGVILSFRSLAQEALRDVLSYHIPFLVSSIEDFKDHIPRETDMKVAMNVYELSSAAGLPCEIDPALVVALSSQKSENISPEEEYKIACLLMVFVAVSLPTLASNVMSQYSPAIEGHCNNIHCLAKAINQIAAALFTIHKGSIEDRLKEFLALASSSLLKIGQETDKTTTRNRESVYLLLDMIVQESPFLTMDLLESCFPYVLLRNAYHAVYKQSVTSSA [NCKAP1] | -0.214 | -0.278 | -0.186 | 51.5 °C | 51.1 °C | -0.159 |
| MVGVKPVGSDPDFQPELSGAGSRLAVVKFTMRGCGPCLRIAPAFSSMSNKYPQAVFLEVDVHQCQGTAATNNISATPTFLFFRNKVRIDQYQGADAVGLEEKIKQHLENDPGSNEDTDIPKGYMDLMPFINKAGCECLNESDEHGFDNCLRKDTTFLESDCDEQLLITVAFNQPVKLYSMKFQGPDNGQGPKYVKIFINLPRSMDFEEAERSEPTQALELTEDDIKEDGIVPLRYVKFQNVNSVTIFVQSNQGEEETTRISYFTFIGTPVQATNMNDFKRVVGKKGESH [TXNL1] | 0.258 | -0.465 | -0.0973 | 50.1 °C | 50.2 °C | -0.112 |
| MAELVQGQSAPVGMKAEGFVDALHRVRQIAAKIDSIPHLNNSTPLVDPSVYGYGVQKRPLDDGVGNQLGALVHQRTVITEEFKVPDKMVGFIIGRGGEQISRIQAESGCKIQIASESSGIPERPCVLTGTPESIEQAKRLLGQIVDRCRNGPGFHNDIDSNSTIQEILIPASKVGLVIGRGGETIKQLQERTGVKMVMIQDGPLPTGADKPLRITGDAFKVQQAREMVLEIIREKDQADFRGVRGDFNSRMGGGSIEVSVPRFAVGIVIGRNGEMIKKIQNDAGVRIQFKPDDGISPERAAQVMGPPDRCQHAAHIISELILTAQERDGFGGLAAARGRGRGRGDWSVGAPGGVQEITYTVPADKCGLVIGKGGENIKSINQQSGAHVELQRNPPPNSDPNLRRFTIRGVPQQIEVARQLIDEKVGGTNLGAPGAFGQSPFSQPPAPPHQNTFPPRSSGCFPNMAAKVNGNPHSTPVSGPPAFLTQGWGSTYQAWQQPTQQVPSQQSQPQSSQPNYSKAWEDYYKKQSHAASAAPQASSPPDYTMAWAEYYRQQVAFYGQTLGQAQAHSQEQ [FUBP3] | 0.337 | 0.0807 | 1.05 | 48.7 °C | 49.5 °C | -0.0288 |
| MDVFLMIRRHKTTIFTDAKESSTVFELKRIVEGILKRPPDEQRLYKDDQLLDDGKTLGECGFTSQTARPQAPATVGLAFRADDTFEALCIEPFSSPPELPDVMKPQDSGSSANEQAVQ [TCEB2] | 0.109 | 1.2 | -0.75 | 52 °C | 51.8 °C | 0.00166 |
| MAGPAWISKVSRLLGAFHNPKQVTRGFTGGVQTVTLIPGDGIGPEISAAVMKIFDAAKAPIQWEERNVTAIQGPGGKWMIPSEAKESMDKNKMGLKGPLKTPIAAGHPSMNLLLRKTFDLYANVRPCVSIEGYKTPYTDVNIVTIRENTEGEYSGIEHVIVDGVVQSIKLITEGASKRIAEFAFEYARNNHRSNVTAVHKANIMRMSDGLFLQKCREVAESCKDIKFNEMYLDTVCLNMVQDPSQFDVLVMPNLYGDILSDLCAGLIGGLGVTPSGNIGANGVAIFESVHGTAPDIAGKDMANPTALLLSAVMMLRHMGLFDHAARIEAACFATIKDGKSLTKDLGGNAKCSDFTEEICRRVKDLD [IDH3A] | 0.45 | -0.172 | -1.18 | 54.5 °C | 54.6 °C | -0.00106 |
| MTKSNGEEPKMGGRMERFQQGVRKRTLLAKKKVQNITKEDVKSYLFRNAFVLLTVTAVIVGTILGFTLRPYRMSYREVKYFSFPGELLMRMLQMLVLPLIISSLVTGMAALDSKASGKMGMRAVVYYMTTTIIAVVIGIIIVIIIHPGKGTKENMHREGKIVRVTAADAFLDLIRNMFPPNLVEACFKQFKTNYEKRSFKVPIQANETLVGAVINNVSEAMETLTRITEELVPVPGSVNGVNALGLVVFSMCFGFVIGNMKEQGQALREFFDSLNEAIMRLVAVIMWYAPVGILFLIAGKIVEMEDMGVIGGQLAMYTVTVIVGLLIHAVIVLPLLYFLVTRKNPWVFIGGLLQALITALGTSSSSATLPITFKCLEENNGVDKRVTRFVLPVGATINMDGTALYEALAAIFIAQVNNFELNFGQIITISITATAASIGAAGIPQAGLVTMVIVLTSVGLPTDDITLIIAVDWFLDRLRTTTNVLGDSLGAGIVEHLSRHELKNRDVEMGNSVIEENEMKKPYQLIAQDNETEKPIDSETKM [SLC1A3] | -0.131 | -4.57 | -5.19 | 61.8 °C | 58 °C | 0.0284 |
